Measurements from US20140100120, “METHODS OF X-APTAMER GENERATION AND COMPOSITIONS […]” (AM Biotechnologies, LLC, published 2014).

Target: CD44 hyaluronic acid binding domain (CD44-HABD) (UniProt P16070 P16070:20-178)
Experiment: filter; 20 mM Tris pH 8.0, 150 mM NaCl, RT
Details: label: biotin; hairpin (predicted)
Procedure: The equilibrium binding constants of selected XAs for CD44-HABD were determined by a filter binding assay. The biotinylated XAs (1 nM) were incubated with varying concentrations of CD44-HABD in 50 μL of 20 mM Tris, pH 8.0, 150 mM NaCl for 40 min at room temperature and then transferred to a 96-well dot-blot apparatus and filtered under vacuum onto nitrocellulose membranes, which retain the CD44-HABD along with any bound XAs. The amount of biotinylated XA retained at each spot was determined by chemiluminescent detection using the Chemiluminescent Nucleic Acid Detection Module (Thermo Scientific) following the manufacturer's instructions. The chemiluminescent signals were collected on a Chemimager (Alpha Innotech). Image analysis and quantification of spot intensities were performed using ImageJ (version 1.42q). Binding analysis was based on the spot intensities on the nitrocellulose membranes with subtraction of background spot intensity due to the buffer effect from all the data points. Saturation binding curves were generated by using GraphPad Prism with curve fits assuming a single binding site. The NH₂ XA column lists KDs for XAs where X=amino-dU. The ADDA XA column lists KDs for XAs where X=ADDA-dU.
The equilibrium binding constants of the small constructs were determined by the filter binding assay. The derived equilibrium binding constants of the above small XA constructs are shown below in Table 4.

Sequence of CD44 hyaluronic acid binding domain (CD44-HABD) (P16070 20-178, one chain of several): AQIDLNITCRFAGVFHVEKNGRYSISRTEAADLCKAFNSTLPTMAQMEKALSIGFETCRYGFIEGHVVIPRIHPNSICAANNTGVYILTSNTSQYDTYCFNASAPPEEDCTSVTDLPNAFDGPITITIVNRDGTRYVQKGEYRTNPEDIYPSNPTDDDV

Row | Binder | Kd [nM]
1 | CTGTTAGGGAACCAAGACGA (ssDNA, fully monothioate PS; X=amino-dU [n positions 2,4 = modified dU]) [Motif 2 thio NH2] | 48
2 | CTGTTAGGGAACCAAGACGA (ssDNA, X=ADDA-dU; phosphodiester [n positions 2,4 = modified dU]) [Motif 2 phospho ADDA] | 2
3 | CTGTTAGGGAACCAAGACGA (ssDNA, fully monothioate PS; X=ADDA-dU [n positions 2,4 = modified dU]) [Motif 2 thio ADDA] | 15.5
4 | CTGTTAGGGAACCAAGACGA (ssDNA, X=amino-dU; phosphodiester [n positions 2,4 = modified dU]) [Motif 2 phospho NH2] | 43.1

Same assay, conditions: label: biotin; stem-loop (predicted)

Row | Binder | Kd [nM]
5 | GATCTGCAATGTAACCATAGACA (ssDNA, X=ADDA-dU; phosphodiester [n positions 10 = modified dU]) [Motif 4 phospho ADDA] | 2.1
6 | GATCTGCAATGTAACCATAGACA (ssDNA, fully monothioate PS; X=ADDA-dU [n positions 10 = modified dU]) [Motif 4 thio ADDA] | 13.6
7 | AGATACAGTAAACGTCCATAGACAC (ssDNA, fully monothioate PS; X=ADDA-dU [n positions 4,15 = modified dU]) [Motif 5 thio ADDA] | 10.1
8 | AGATACAGTAAACGTCCATAGACAC (ssDNA, fully monothioate PS; X=amino-dU [n positions 4,15 = modified dU]) [Motif 5 thio NH2] | 18
9 | GATCTGCAATGTAACCATAGACA (ssDNA, fully monothioate PS; X=amino-dU [n positions 10 = modified dU]) [Motif 4 thio NH2] | 35.4
10 | AGATACAGTAAACGTCCATAGACAC (ssDNA, X=ADDA-dU; phosphodiester [n positions 4,15 = modified dU]) [Motif 5 phospho ADDA] | 3.9
11 | GATCTGCAATGTAACCATAGACA (ssDNA, X=amino-dU; phosphodiester [n positions 10 = modified dU]) [Motif 4 phospho NH2] | 6.8
12 | GCCTGCAAGACGTCCATAGACAC (ssDNA, fully monothioate PS; X=amino-dU [n positions 13 = modified dU]) [Motif 3 thio NH2] | 81.2
13 | GCCTGCAAGACGTCCATAGACAC (ssDNA, fully monothioate PS; X=ADDA-dU [n positions 13 = modified dU]) [Motif 3 thio ADDA] | 64.8
14 | AGATACAGTAAACGTCCATAGACAC (ssDNA, X=amino-dU; phosphodiester [n positions 4,15 = modified dU]) [Motif 5 phospho NH2] | 13.8
15 | GCCTGCAAGACGTCCATAGACAC (ssDNA, X=ADDA-dU; phosphodiester [n positions 13 = modified dU]) [Motif 3 phospho ADDA] | 19.5
16 | GCCTGCAAGACGTCCATAGACAC (ssDNA, X=amino-dU; phosphodiester [n positions 13 = modified dU]) [Motif 3 phospho NH2] | 27.6
